From patent US20210380648, “DNA BINDING PROTEINS AND USES THEREOF” (Klogenix LLC, published 2021)

Legend:
ZFP52 (VP64) = assay: cell_activity; Klotho ELISA in HK-2; conditions: tags: NLS, VP64, HA
Description: (§1) ELISA components were purchased from IBL and assays were performed according to the manufacturers instructions.
(§2) Klotho is largely expressed in the brain and kidney, and so further investigations were made using cell lines derived from those organs. The ZFPs were transfected into HK-2 cells and Klotho protein levels were measured.

ZFP52_VPR = assay: cell_activity; Klotho ELISA in HK-2; conditions: tags: NLS, VP64-p65-Rta, HA, V5, His
Sequence of ZFP52_VPR (chain, as listed by the source): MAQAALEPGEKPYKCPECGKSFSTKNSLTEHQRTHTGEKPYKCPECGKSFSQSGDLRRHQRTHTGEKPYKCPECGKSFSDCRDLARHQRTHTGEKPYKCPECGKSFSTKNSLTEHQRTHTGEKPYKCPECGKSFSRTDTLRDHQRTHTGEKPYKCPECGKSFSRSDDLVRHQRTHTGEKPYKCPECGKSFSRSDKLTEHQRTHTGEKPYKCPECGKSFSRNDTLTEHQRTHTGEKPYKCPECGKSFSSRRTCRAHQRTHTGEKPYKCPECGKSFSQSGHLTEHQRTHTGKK
Description: as §1, §2

[1] = biological target: ZFP3_Egr1_site3_antisense_VPR; assay: cell_activity; Klotho ELISA in HK-2; conditions: tags: NLS, VP64-p65-Rta, HA, V5, His
Sequence of ZFP3_Egr1_site3_antisense_VPR (chain, as listed by the source): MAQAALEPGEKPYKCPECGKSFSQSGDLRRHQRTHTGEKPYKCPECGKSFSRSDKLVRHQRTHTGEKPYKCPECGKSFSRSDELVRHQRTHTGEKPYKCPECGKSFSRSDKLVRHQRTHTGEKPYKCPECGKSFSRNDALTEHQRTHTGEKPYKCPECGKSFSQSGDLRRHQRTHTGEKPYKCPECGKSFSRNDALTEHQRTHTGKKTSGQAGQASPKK
Description: as §1, §2

[2] = biological target: ZFP3_Egr1_site3_antisense (VP64); assay: cell_activity; Klotho protein ELISA in HK-2; also active in HEK293 4 kb promoter reporter; conditions: tags: NLS, VP64, HA
Description: as §1, §2

B1: ZFP52 target (dsDNA)
DNA 1: CGACGTCCGCGGGCGACGCCTGCCGCACCT
DNA 2: AGGTGCGGCAGGCGTCGCCCGCGGACGTCG
ZFP52 (VP64)
  activity: ~2 fold
ZFP52_VPR
  activity: ~5 fold

B2: ZFP3_Egr1_site3 target (dsDNA)
DNA 1: CTGGCACTGGGGGTGGGGGCA
DNA 2: TGCCCCCACCCCCAGTGCCAG
[1]
  activity: ~3 fold
[2]
  activity: ~3 fold
